Changes are numbered by the printed parent chain.
Key:
[1] = Pharmacokinetics of VHH-Fc variants in Tg32 (humanized FcRn) mice; assay type: in vivo; conditions: IV 3 mg/kg, HER2 VHH-Fc study (Table 6)
Experimental: Twenty eight (28) 8 week old male B6. Cg-Fcgrt^tm1Der Tg(FCGRT)32Dcr/DcrJ (Tg32 hom, JAX stock #014565) mice were distributed into 7 groups with 4 mice per group as outlined in the table. […] (See, e.g., Avery L B et al. “Utility of a human FcRn transgenic mouse model in drug discovery for early assessment and prediction of human pharmacokinetics of monoclonal antibodies.” MAbs. 2016 August-September; 8(6):1064-78). On Day 0, body weights were measured and test articles were IV administered to all mice at 3 mg/kg and 5 mL/kg. 25 μL blood samples were collected from each mouse at time intervals. The blood samples were collected into 1 μL K3EDTA, processed to plasma, diluted 1/10 in 50% glycerol in PBS, transferred into specialized 96 well storage plates, and stored at −20° C. All plasma samples were assessed via a hIgG ELISA chosen for its high sensitivity for all seven test articles.

FcγRIIb/c = molecular target: T1, FcγRIIb/c (Homo sapiens, UniProt P31994); assay: FcγR affinity by biolayer interferometry (Octet Red96e); assay type: binding
T1 construct: purchased Acro Biosystems
T1 sequence (P31994 43-310): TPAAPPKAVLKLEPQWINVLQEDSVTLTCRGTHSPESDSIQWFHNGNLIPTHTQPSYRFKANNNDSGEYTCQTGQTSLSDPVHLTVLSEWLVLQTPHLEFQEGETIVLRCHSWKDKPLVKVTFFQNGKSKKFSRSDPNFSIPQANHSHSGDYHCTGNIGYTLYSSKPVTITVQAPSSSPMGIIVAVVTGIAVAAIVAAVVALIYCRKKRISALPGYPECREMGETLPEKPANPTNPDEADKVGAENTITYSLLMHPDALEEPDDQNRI
Experimental: (§1) VHH-Fcs were also tested for affinity to FcγRs by biolayer interferometry using the Octet Red96e platform. Each cycle is performed with orbital shake speed of 1,000 rpm. Streptavidin (SA) biosensors (Sartorius 18-5019) were rehydrated for 10 mins using kinetics buffer (PBS+0.1% BSA+0.02% Tween-20). Biotinylated-FcγRs (Acro Biosystems) were then loaded for 40-100 s onto SA biosensors at concentrations ranging between 1-5 μg/mL diluted in PBS. VHH-Fcs were serially diluted 1:2 in sample buffer (PBS+0.02% Tween-20) with starting concentrations ranging between 5000 nM to 37.5 nM. Loaded biosensors were then associated with VHH-Fcs for 60-120 s. VHH-Fc dissociation was measured for 30-900 s in sample buffer. Bound VHH-Fcs were then removed using 3 cycles of 5 s regeneration buffer (150 mM NaCl, 300 mM Sodium Citrate) and 5 s sample buffer. The data was analyzed either using a globally-fitted 1:1 Langmuir binding model (FcγRI) or steady state analysis (Octet software version HT v11.1).

FcγRIIIa (V176) = molecular target: T2, FcγRIIIa (V176) (Homo sapiens, UniProt P08637, F176V); assay: as above; assay type: binding
T2 construct: purchased Acro Biosystems
T2 sequence (P08637 17-208 F176V limits assumed): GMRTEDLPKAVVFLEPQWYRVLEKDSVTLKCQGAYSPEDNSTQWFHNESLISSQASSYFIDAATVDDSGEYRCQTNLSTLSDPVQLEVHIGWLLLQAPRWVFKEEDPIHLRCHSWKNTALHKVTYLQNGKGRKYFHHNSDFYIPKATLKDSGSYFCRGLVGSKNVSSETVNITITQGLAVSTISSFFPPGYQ
Experimental: as §1

FcγRIIIa (F176) = molecular target: T3, FcγRIIIa (F176) (Homo sapiens, UniProt P08637); assay: as above; assay type: binding
T3 construct: purchased Acro Biosystems
T3 sequence (P08637 17-208 limits assumed): as the sequence (P08637 17-208 F176V limits assumed) above, with V160F counted along it
Experimental: as §1

FcγRIIa (H167) = molecular target: T4, FcγRIIa (H167) (Homo sapiens, UniProt P12318); assay: as above; assay type: binding
T4 construct: purchased Acro Biosystems
T4 sequence (P12318 36-218 limits assumed): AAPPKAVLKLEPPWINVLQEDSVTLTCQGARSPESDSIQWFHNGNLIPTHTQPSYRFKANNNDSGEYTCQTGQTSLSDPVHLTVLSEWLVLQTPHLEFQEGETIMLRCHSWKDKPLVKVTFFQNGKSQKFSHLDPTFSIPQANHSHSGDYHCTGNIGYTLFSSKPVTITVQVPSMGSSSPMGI
Experimental: as §1

FcγRIIa (R167) = molecular target: T5, FcγRIIa (R167) (Homo sapiens, UniProt P12318, H167R); assay: as above; assay type: binding
T5 construct: purchased Acro Biosystems
T5 sequence (P12318 36-218 H167R limits assumed): T4 sequence (P12318 36-218 limits assumed) with H132R
Experimental: as §1

FcγRI = molecular target: T6, FcγRI (Homo sapiens, UniProt P12314); assay: as above; assay type: binding
T6 construct: purchased Acro Biosystems
T6 sequence (P12314 16-374): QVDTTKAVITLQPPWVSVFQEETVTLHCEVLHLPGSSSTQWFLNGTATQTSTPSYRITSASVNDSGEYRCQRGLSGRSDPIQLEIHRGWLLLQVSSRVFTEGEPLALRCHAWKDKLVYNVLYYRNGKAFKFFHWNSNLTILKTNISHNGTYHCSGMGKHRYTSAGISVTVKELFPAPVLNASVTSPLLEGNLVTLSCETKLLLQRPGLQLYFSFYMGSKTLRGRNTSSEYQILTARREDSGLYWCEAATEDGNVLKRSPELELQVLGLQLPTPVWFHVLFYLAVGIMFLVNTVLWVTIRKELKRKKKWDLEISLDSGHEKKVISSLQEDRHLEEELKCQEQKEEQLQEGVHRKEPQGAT
Experimental: as §1

hFcRn = molecular target: T7, hFcRn (Homo sapiens, UniProt P55899); assay: FcRn affinity by biolayer interferometry (Octet RED96e), pH 6.0; conditions: pH 6.0, 2:1 binding model
T7 construct: purchased Sino Biological CT071-H27H-B
T7 sequence (P55899 24-297 limits assumed): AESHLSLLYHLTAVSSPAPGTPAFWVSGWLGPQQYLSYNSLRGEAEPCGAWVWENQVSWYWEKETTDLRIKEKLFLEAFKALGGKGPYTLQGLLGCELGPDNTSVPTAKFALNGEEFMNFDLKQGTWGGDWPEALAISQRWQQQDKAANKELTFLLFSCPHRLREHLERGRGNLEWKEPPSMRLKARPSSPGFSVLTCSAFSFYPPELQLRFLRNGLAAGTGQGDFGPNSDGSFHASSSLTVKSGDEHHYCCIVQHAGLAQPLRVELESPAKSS
T7 sequence (P61769 21-119 partner): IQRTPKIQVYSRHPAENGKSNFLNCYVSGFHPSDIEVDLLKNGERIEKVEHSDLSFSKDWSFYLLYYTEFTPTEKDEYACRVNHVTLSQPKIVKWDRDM
Experimental: FcRn affinity of VHH-Fc can generally be used to predict the half-life of antibody serum clearance. (See, e.g., Datta-Mannan A et al. “FcRn affinity-pharmacokinetic relationship of five human IgG4 antibodies engineered for improved in vitro FcRn binding properties in cynomolgus monkeys.” Drug Metab Dispos. 2012 August; 40(8):1545-55). Briefly, 10 nM of biotinylated hFcRn (Sino Biological, Cat #: CT071-H27H-B) was captured with the SA biosensor using Octet RED96e (Fortebio). The hFcRN coated biosensor was dipped into the sample solutions in sodium phosphate buffer (100 mM Na2HPO4, 150 mM NaCl w/ 0.05% Tween-20, pH 6.0) with serial concentrations of tested antibodies and the association measured. The dissociation was measured by dipping the biosensors into sodium phosphate buffer without antibody. The KD values were determined using Octet Data Analysis HT 11.0 software. 2:1 (Heterogeneous Ligand) binding model was used in analysis. […] Changes in FcRn affinity were consistent across targets. Constructs with Fc Effector mutation only have no impact on FcRn affinity.

For “H101: anti-HER2 VHH-Fc (2RS15d VHH, human IgG1 Fc); FcRn wt, Fc effector wt [Compound H101]”, the Clearance [1] was 28.7 mL/day, the Cmax [1] was 57.0 µg/mL and the “Terminal Half-Life” value [1] was 166 h. For the same substance, the Kd (FcγRIIb/c) was 450 nM, the Kd (FcγRIIIa (V176)) was 480 nM and the Kd (FcγRIIIa (F176)) was 1600 nM. It also gave a Kd (FcγRIIa (H167)) of 340 nM, a Kd (FcγRIIa (R167)) of 160 nM and a Kd (FcγRI) of 1.01 nM. For the same substance, the Kd (hFcRn) was 3.7 nM.

Reference: patent publication US20260183437A1, “VHH ANTIBODY CONJUGATES WITH HETEROARYL CHELATORS” (ABDERA THERAPEUTICS INC., priority 2022, published 2026)
